Experiments:
Experiment in all cases: pull-down
[1] = target: PAD4 R484Q, labelled with BFA (human) (UniProt Q9UM07)
[2] = target: PAD4 R419Q, labelled with BFA (human) (UniProt Q9UM07)
[3] = target: PAD4 R123Q, labelled with BFA (human) (UniProt Q9UM07)
[4] = target: PAD4 R609Q, labelled with BFA (human) (UniProt Q9UM07)
[5] = target: PAD4 R639Q, labelled with BFA (human) (UniProt Q9UM07)

fold decrease of affinity against wild type PAD4 [1] [fold]	fold decrease of affinity against wild type PAD4 [2] [fold]	fold decrease of affinity against wild type PAD4 [3] [fold]	fold reduction of affinity against wild type PAD4 [1] [fold]	fold reduction of affinity against wild type PAD4 [4] [fold]	fold reduction of affinity against wild type PAD4 [5] [fold]	fold reduction of affinity against wild type PAD4 [3] [fold]	Substance
1.4	1.4	3.3	–	–	–	–	Histone Deacetylase 1 (HDAC1) (from UniProt Q13547 1-482) (enzyme)
–	–	–	10	3.3	5	2	Protein Arginine Methyltransferase 1 (PRMT1) (from UniProt Q99873 1-371) (enzyme)

Reference: PMC3091952
